# Measured values published in paper PMC4364671, “Identification and Characterization of Bifunctional Proline Racemase/Hydroxyproline Epimerase from Archaea: Discrimination of Substrates and Molecular Evolution” (PLoS ONE, 2015).
# T1: TlProR (bifunctional proline racemase/hydroxyproline epimerase) (Thermococcus litoralis, UniProt H3ZMH5)
# T1 construct: gene OCC_00372
# T1 sequence (H3ZMH5 1-331): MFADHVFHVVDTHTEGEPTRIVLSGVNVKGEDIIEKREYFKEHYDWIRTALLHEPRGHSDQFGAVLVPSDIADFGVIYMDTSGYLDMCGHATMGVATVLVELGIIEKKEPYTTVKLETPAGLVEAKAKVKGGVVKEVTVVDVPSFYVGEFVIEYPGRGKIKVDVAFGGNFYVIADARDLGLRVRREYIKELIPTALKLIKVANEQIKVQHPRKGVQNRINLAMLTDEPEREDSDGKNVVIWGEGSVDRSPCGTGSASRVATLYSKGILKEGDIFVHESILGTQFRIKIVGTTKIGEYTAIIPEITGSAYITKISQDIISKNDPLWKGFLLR
# B1: TlProR (bifunctional proline racemase/hydroxyproline epimerase) (Thermococcus litoralis DSM 5473) (protein)
# chain: T1 sequence (H3ZMH5 1-331)
# B2: Proline racemase from Clostridium difficile (enzyme, Clostridium difficile 630, UniProt Q17ZY4 1-335, looked up)
# chain: MKFSRSIQAIDSHTAGEATRIVVGGIPNIKGNSMPEKKEYLEENLDYLRTAIMLEPRGHNDMFGSVMTQPCCPDADFGIIFMDGGGYLNMCGHGTIGAMTAAIETGVVPAVEPVTHVVMEAPAGIIRGDVTVVDGKAKEVSFLNVPAFLYKEGVEVDLPGVGTVKFDISFGGSFFAIIHASQLGLKIEPQNAGKLTELAMKLRDIINEKIEIQHPTLAHIKTVDLVEIYDEPTHPEATYKNVVIFGQGQVDRSPCGTGTSAKLATLHAKGELKVGEKFVYESILGTLFKGEIVEETKVADFNAVVPKITGSAYITGFNHFVIDEEDPLKHGFILK
# notes: Proline racemase CdProR of Clostridium difficile 630, gene CD630_32370 amplified from genomic DNA into pETDuet-1; calculated mass with His6-tag 37.7 kDa; also called CdProR; source: E. coli BL21-CodonPlus(DE3)-RIL, purified (Ni-NTA); not shown: His6, N-terminal, kept
# Tests used:
# [1] = target: Hydroxyproline 2-epimerase from Azospirillum brasilense (Azospirillum brasilense ATCC 29145); experiment: SEC; analytic gel filtration by HPLC on TSKgel G3000SWXL, 50 mM Tris-HCl pH 8.0, 1 ml/min, high molecular weight calibration kit; data not shown
# HjProR = target: T2, HjProR (Haloarcula japonica, UniProt M0LMI3); experiment: chiral HPLC of NBD-F derivatives, racemase activity; type: biochemical
# T2 construct: gene C444_02196; full length, N-terminal His6 tag kept (pETDuet-1), E. coli; dimer; possible partial proteolysis
# [2] = target: ProR-like protein (OCC_00372) from Thermococcus litoralis, bifunctional proline racemase/hydroxyproline epimerase (Thermococcus litoralis DSM 5473); experiment: SEC; analytic gel filtration by HPLC on TSKgel G3000SWXL, 50 mM Tris-HCl pH 8.0, 1 ml/min, high molecular weight calibration kit; data not shown
# [3] = target: ProR-like protein from Haloarcula japonica (Haloarcula japonica DSM 6131); experiment: as above
# [4] = target: ProR-like protein from Ferroplasma acidiphilum (Ferroplasma acidiphilum DSM 12658); experiment: as above
# [5] = target: T1, TlProR (bifunctional proline racemase/hydroxyproline epimerase); experiment: HPLC racemase assay with L-proline, chiral separation; type: biochemical
# purified protein [6] = substrate: O=C(O)[C@@H]1CCCN1; experiment: purified protein
# purified protein [7] = substrate: O=C(O)[C@H]1NCC[C@@H]1O; experiment: purified protein
# purified protein [8] = substrate: O=C(O)[C@H]1C[C@@H](O)CN1; experiment: purified protein
# purified protein [9] = substrate: O=C(O)[C@@H]1C[C@@H](O)CN1; experiment: purified protein
# purified protein [10] = substrate: O=C(O)[C@H]1CCCN1; experiment: purified protein
# [11] = target: the molecule itself; experiment: SEC; analytic gel filtration by HPLC on TSKgel G3000SWXL, 50 mM Tris-HCl pH 8.0, 1 ml/min, high molecular weight calibration kit; data not shown
# T2 sequence (M0LMI3 entry or part of it): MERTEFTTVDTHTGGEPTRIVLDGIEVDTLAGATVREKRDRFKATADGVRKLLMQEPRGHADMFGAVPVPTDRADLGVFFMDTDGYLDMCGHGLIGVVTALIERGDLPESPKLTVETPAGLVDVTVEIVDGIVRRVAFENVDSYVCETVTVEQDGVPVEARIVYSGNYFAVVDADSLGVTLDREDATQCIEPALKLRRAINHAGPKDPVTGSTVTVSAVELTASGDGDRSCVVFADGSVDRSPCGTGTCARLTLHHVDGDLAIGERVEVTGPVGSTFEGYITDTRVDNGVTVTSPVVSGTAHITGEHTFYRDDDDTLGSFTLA
molecule,measurement,setting,value
Hydroxyproline 2-epimerase from Azospirillum brasilense (enzyme),stoichiometry N,[1],2
O=C(O)c1ccc[nH]1 [pyrrole-2-carboxylate],IC50,HjProR,295 µM
"ProR-like protein (OCC_00372) from Thermococcus litoralis, bifunctional proline racemase/hydroxyproline epimerase (enzyme)",stoichiometry N,[2],2
ProR-like protein from Haloarcula japonica (enzyme),stoichiometry N,[3],2
ProR-like protein from Ferroplasma acidiphilum (enzyme),stoichiometry N,[4],2
"O=C(O)c1ccc[nH]1 [PYC, pyrrole-2-carboxylate]",IC50,[5],217 µM
B1,Km,purified protein [6],1210 µM
same,kcat,purified protein [6],2.78 s⁻¹
same,kcat/Km,purified protein [6],2300 M⁻¹ s⁻¹
same,Km,purified protein [7],502 µM
same,kcat,purified protein [7],3.6 s⁻¹
same,kcat/Km,purified protein [7],7170 M⁻¹ s⁻¹
same,Km,purified protein [8],6650 µM
same,kcat,purified protein [8],3.83 s⁻¹
same,kcat/Km,purified protein [8],580 M⁻¹ s⁻¹
same,Km,purified protein [9],6080 µM
same,kcat,purified protein [9],12.1 s⁻¹
same,kcat/Km,purified protein [9],2030 M⁻¹ s⁻¹
same,Km,purified protein [10],91.9 µM
same,kcat,purified protein [10],2.22 s⁻¹
same,kcat/Km,purified protein [10],26200 M⁻¹ s⁻¹
B2,stoichiometry N,[11],2
